Data taken from PMC7346168, “Redox Conformation-Specific Protein–Protein Interactions of the 2-Cysteine Peroxiredoxin in Arabidopsis” (Antioxidants, 2020).

T1: 2-CysPRXA C54S (pseudo-reduced variant) (Arabidopsis, UniProt Q96291 66-266, C54S)
T1 construct: 2-Cys peroxiredoxin A, Arabidopsis; source: E. coli BL21, recombinant (pET28a)
T1 sequence (looked up): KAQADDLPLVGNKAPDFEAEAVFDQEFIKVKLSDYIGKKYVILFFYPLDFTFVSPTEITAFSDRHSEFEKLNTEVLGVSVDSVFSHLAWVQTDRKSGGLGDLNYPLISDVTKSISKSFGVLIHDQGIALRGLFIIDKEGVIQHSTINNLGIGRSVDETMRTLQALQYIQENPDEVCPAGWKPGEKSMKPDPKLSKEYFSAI

T2: 2-CysPRXA C54S (pseudo-reduced variant) (Arabidopsis, UniProt Q96291 66-266, C54S)
T2 sequence: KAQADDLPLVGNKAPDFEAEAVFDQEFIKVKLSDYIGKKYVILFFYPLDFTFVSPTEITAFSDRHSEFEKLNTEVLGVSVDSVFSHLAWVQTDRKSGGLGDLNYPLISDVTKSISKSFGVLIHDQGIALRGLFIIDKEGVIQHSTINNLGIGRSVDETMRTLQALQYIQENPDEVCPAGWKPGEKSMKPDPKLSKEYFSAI

T3: 2-cysteine peroxiredoxin A, wild type (2-CysPRXA WT) (Arabidopsis, UniProt Q96291 66-266)
T3 chain: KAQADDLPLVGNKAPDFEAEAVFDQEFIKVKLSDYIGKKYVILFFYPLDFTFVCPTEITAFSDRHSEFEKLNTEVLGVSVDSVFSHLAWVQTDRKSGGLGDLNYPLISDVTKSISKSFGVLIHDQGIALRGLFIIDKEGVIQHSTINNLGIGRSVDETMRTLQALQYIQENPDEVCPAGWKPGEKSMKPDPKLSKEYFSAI

T4: 2-cysteine peroxiredoxin A, wild type (2-CysPRXA WT) (Arabidopsis, UniProt Q96291 66-266)
T4 sequence (looked up): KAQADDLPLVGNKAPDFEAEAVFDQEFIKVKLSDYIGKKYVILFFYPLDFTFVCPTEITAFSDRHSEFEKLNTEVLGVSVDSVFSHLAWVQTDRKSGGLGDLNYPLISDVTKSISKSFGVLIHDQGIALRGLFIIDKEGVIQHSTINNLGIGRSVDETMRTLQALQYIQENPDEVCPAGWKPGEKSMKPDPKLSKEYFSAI


Key:
[1] = molecular target: T1, 2-CysPRXA C54S (pseudo-reduced variant); test: ITC; CP12-1 injected into 2-CysPRXA C54S under oxidizing conditions (proteins treated with 1 mM H2O2, dialysed); 35 mM HEPES pH 8.0; details: both partners purified
[2] = molecular target: T2, 2-CysPRXA C54S (pseudo-reduced variant); test: ITC; oxidized (unit printed as M)
[3] = molecular target: T3, 2-cysteine peroxiredoxin A, wild type …; test: ITC; reduced (unit printed as M)
[4] = molecular target: T4, 2-cysteine peroxiredoxin A, wild type …; test: cell-based or functional assay
[5] = molecular target: T4, 2-cysteine peroxiredoxin A, wild type …; test: ITC; LOX2 injected into 2-CysPRX WT under reducing conditions (proteins treated with 10 mM DTT, dialysed); 35 mM HEPES pH 8.0; details: both partners purified

stoichiometry N [1] | Ka [2] [M⁻¹] | Ka [3] [M⁻¹] | LOX2-catalysed peroxidation of α-linolenic acid (absorbance at 234 nm), 0.5 µM LOX2 with 0.5 µM oxidized 2-CysPRXA; rate against LOX2 alone [4] [fold] | LOX2-catalysed peroxidation of α-linolenic acid (absorbance at 234 nm), 0.5 µM LOX2 with 0.5 µM reduced 2-CysPRXA; rate against LOX2 alone [4] [fold] | stoichiometry N [5] | Binder
~1 | 3.91e+06 | – | – | – | – | CHLOROPLAST PROTEIN 12-1, recombinant hisx6-tagged (natural protein, Arabidopsis thaliana, UniProt O22914 48-124, looked up, Calvin cycle protein CP12-1, Arabidopsis thaliana; also called CP12-1; CHLOROPLAST REGULATOR; source: E. coli BL21, recombinant) TSEGEISEKVEKSIQEAKETCADDPVSGECVAAWDEVEELSAAASHARDKKKAGGSDPLEEYCNDNPETDECRTYDN
– | – | 4.18e+07 | 2.4 | 1.4 | ~1 | LIPOXYGENASE 2, recombinant hisx6-tagged (enzyme, Arabidopsis thaliana, UniProt P38418 71-896, looked up, Lipoxygenase 2, Arabidopsis thaliana; the limits follow from them; also called LOX2; 13-LIPOXYGENASE; source: E. coli BL21, recombinant (pET15b)) QNIKVKGYITAQEEFLEGITWSRGLDDIADIRGRSLLVELISAKTDQRITVEDYAQRVWAEAPDEKYECEFEMPEDFGPVGAIKIQNQYHRQLFLKGVELKLPGGSITFTCESWVAPKSVDPTKRIFFSDKSYLPSQTPEPLKKYRKEELETLQGKNREEVGEFTKFERIYDYDVYNDVGDPDNDPELARPVIGGLTHPYPRRCKTGRKPCETDPSSEQRYGGEFYVPRDEEFSTAKGTSFTGKAVLAALPSIFPQIESVLLSPQEPFPHFKAIQNLFEEGIQLPKDAGLLPLLPRIIKALGEAQDDILQFDAPVLINRDRFSWLRDDEFARQTLAGLNPYSIQLVEEWPLISKLDPAVYGDPTSLITWEIVEREVKGNMTVDEALKNKRLFVLDYHDLLLPYVNKVRELNNTTLYASRTLFFLSDDSTLRPVAIELTCPPNINKPQWKQVFTPGYDATSCWLWNLAKTHAISHDAGYHQLISHWLRTHACTEPYIIAANRQLSAMHPIYRLLHPHFRYTMEINARARQSLVNGGGIIETCFWPGKYALELSSAVYGKLWRFDQEGLPADLIKRGLAEEDKTAEHGVRLTIPDYPFANDGLILWDAIKEWVTDYVKHYYPDEELITSDEELQGWWSEVRNIGHGDKKDEPWWPVLKTQDDLIGVVTTIAWVTSGHHAAVNFGQYGYGGYFPNRPTTTRIRMPTEDPTDEALKEFYESPEKVLLKTYPSQKQATLVMVTLDLLSTHSPDEEYIGEQQEASWANEPVINAAFERFKGKLQYLEGVIDERNVNITLKNRAGAGVVKYELLKPTSEHGVTGMGVPYSISI
